# Test system: MBP5-TEV-paramyosin ΔSal (maltose binding protein domain and a paramyosin fragment linked by a TEV protease recognition sequence)
substance,measurement,value
"commercially available TEV protease (New England Biolabs, Inc. Catalog #P8112S)","cleavage of the substrate, 4° C., 1 hour",the commercially available enzyme only produced 62% cleavage in the same time
same,"cleavage of the substrate, 4° C., 3 hours","the commercial enzyme cleaved only 76% and 83% of the substrate at these times, respectively"
same,"cleavage of the substrate, 4° C., 5 hours","the commercial enzyme cleaved only 76% and 83% of the substrate at these times, respectively"

# Reference: patent publication US20260234592
